This note sets out measurements from patent publication US20230407373A1 (priority 2020, published 2023).

The test system of one assay is gRNA of HCoV-OC43. The class given is binding. As to conditions: for target (spectral count, OC43 Probe I RNP capture) / background (spectral count, no-probe control): type n_48_v: 48 hours post-infection; for target (spectral count, OC43 Probe I RNP capture): infected cells, unweighted spectral count; for background (spectral count, no-probe control): no-probe control on infected cells; for target (spectral count) / background (spectral count): type g_36_m, 36 hpi, Probe I; for target (spectral count): HCoV-OC43-infected HCT-8 cells; for background (spectral count): uninfected-probe control.

In another assay the test system is HCoV-OC43 gRNA and sgRNA. Format: binding.

B1: ATXN2 ? (protein, UniProt Q99700 1-1313, looked up)
Ataxin-2: MRSAAAAPRSPAVATESRRFAAARWPGWRSLQRPARRSGRGGGGAAPGPYPSAAPPPPGPGPPPSRQSSPPSASDCFGSNGNGGGAFRPGSRRLLGLGGPPRPFVVLLLPLASPGAPPAAPTRASPLGARASPPRSGVSLARPAPGCPRPACEPVYGPLTMSLKPQQQQQQQQQQQQQQQQQQQQQQQPPPAAANVRKPGGSGLLASPAAAPSPSSSSVSSSSATAPSSVVAATSGGGRPGLGRGRNSNKGLPQSTISFDGIYANMRMVHILTSVVGSKCEVQVKNGGIYEGVFKTYSPKCDLVLDAAHEKSTESSSGPKREEIMESILFKCSDFVVVQFKDMDSSYAKRDAFTDSAISAKVNGEHKEKDLEPWDAGELTANEELEALENDVSNGWDPNDMFRYNEENYGVVSTYDSSLSSYTVPLERDNSEEFLKREARANQLAEEIESSAQYKARVALENDDRSEEEKYTAVQRNSSEREGHSINTRENKYIPPGQRNREVISWGSGRQNSPRMGQPGSGSMPSRSTSHTSDFNPNSGSDQRVVNGGVPWPSPCPSPSSRPPSRYQSGPNSLPPRAATPTRPPSRPPSRPSRPPSHPSAHGSPAPVSTMPKRMSSEGPPRMSPKAQRHPRNHRVSAGRGSISSGLEFVSHNPPSEAATPPVARTSPSGGTWSSVVSGVPRLSPKTHRPRSPRQNSIGNTPSGPVLASPQAGIIPTEAVAMPIPAASPTPASPASNRAVTPSSEAKDSRLQDQRQNSPAGNKENIKPNETSPSFSKAENKGISPVVSEHRKQIDDLKKFKNDFRLQPSSTSESMDQLLNKNREGEKSRDLIKDKIEPSAKDSFIENSSSNCTSGSSKPNSPSISPSILSNTEHKRGPEVTSQGVQTSSPACKQEKDDKEEKKDAAEQVRKSTLNPNAKEFNPRSFSQPKPSTTPTSPRPQAQPSPSMVGHQQPTPVYTQPVCFAPNMMYPVPVSPGVQPLYPIPMTPMPVNQAKTYRAVPNMPQQRQDQHHQSAMMHPASAAGPPIAATPPAYSTQYVAYSPQQFPNQPLVQHVPHYQSQHPHVYSPVIQGNARMMAPPTHAQPGLVSSSATQYGAHEQTHAMYACPKLPYNKETSPSFYFAISTGSLAQQYAHPNATLHPHTPHPQPSATPTGQQQSQHGGSHPAPSPVQHHQHQAAQALHLASPQQQSAIYHAGLAPTPPSMTPASNTQSPQNSFPAAQQTVFTIHPSHVQPAYTNPPHMAHVPQAHVQSGMVPSHPTAHAPMMLMTTQPPGGPQAALAQSALQPIPVSTTAHFPYMTHPSVQAHHQQQL
Turning to B1, in the assay with gRNA of HCoV-OC43, the “target (spectral count, OC43 Probe I RNP capture)” value was 12 and the “background (spectral count, no-probe control)” value was 1.

B2: RIAS: host protein, UniProt P31483 (protein, UniProt P31483 1-386, looked up)
Cytotoxic granule associated …: MEDEMPKTLYVGNLSRDVTEALILQLFSQIGPCKNCKMIMDTAGNDPYCFVEFHEHRHAAAALAAMNGRKIMGKEVKVNWATTPSSQKKDTSSSTVVSTQRSQDHFHVFVGDLSPEITTEDIKAAFAPFGRISDARVVKDMATGKSKGYGFVSFFNKWDAENAIQQMGGQWLGGRQIRTNWATRKPPAPKSTYESNTKQLSYDEVVNQSSPSNCTVYCGGVTSGLTEQLMRQTFSPFGQIMEIRVFPDKGYSFVRFNSHESAAHAIVSVNGTTIEGHVVKCYWGKETLDMINPVQQQNQIGYPQPYGQWGQWYGNAQQIGQYMPNGWQVPAYGMYGQAWNQQGFNQTQSSAPWMGPNYGVQPPQGQNGSMLPNQPSGYRVAGYETQ
Consider B2, for which, in the assay on gRNA of HCoV-OC43, the “target (spectral count)” value is reported as 10 and the “background (spectral count)” value is given as 1.

B3: SNW1 (protein, UniProt Q13573 2-536, looked up)
SNW domain-containing protein …: ALTSFLPAPTQLSQDQLEAEEKARSQRSRQTSLVSSRREPPPYGYRKGWIPRLLEDFGDGGAFPEIHVAQYPLDMGRKKKMSNALAIQVDSEGKIKYDAIARQGQSKDKVIYSKYTDLVPKEVMNADDPDLQRPDEEAIKEITEKTRVALEKSVSQKVAAAMPVRAADKLAPAQYIRYTPSQQGVAFNSGAKQRVIRMVEMQKDPMEPPRFKINKKIPRGPPSPPAPVMHSPSRKMTVKEQQEWKIPPCISNWKNAKGYTIPLDKRLAADGRGLQTVHINENFAKLAEALYIADRKAREAVEMRAQVERKMAQKEKEKHEEKLREMAQKARERRAGIKTHVEKEDGEARERDEIRHDRRKERQHDRNLSRAAPDKRSKLQRNENRDISEVIALGVPNPRTSNEVQYDQRLFNQSKGMDSGFAGGEDEIYNVYDQAWRGGKDMAQSIYRPSKNLDKDMYGDDLEARIKTNRFVPDKEFSGSDRRQRGREGPVQFEEDPFGLDKFLEEAKQHGGSKRPSDSSRPKEHEHEGKKRRKE
Regarding B3, in the assay with gRNA of HCoV-OC43, the “target (spectral count, OC43 Probe I RNP capture)” value was 5 and the “background (spectral count, no-probe control)” value was found to be 1.

B4: MSN (protein, UniProt P26038 2-577, looked up)
Moesin: PKTISVRVTTMDAELEFAIQPNTTGKQLFDQVVKTIGLREVWFFGLQYQDTKGFSTWLKLNKKVTAQDVRKESPLLFKFRAKFYPEDVSEELIQDITQRLFFLQVKEGILNDDIYCPPETAVLLASYAVQSKYGDFNKEVHKSGYLAGDKLLPQRVLEQHKLNKDQWEERIQVWHEEHRGMLREDAVLEYLKIAQDLEMYGVNYFSIKNKKGSELWLGVDALGLNIYEQNDRLTPKIGFPWSEIRNISFNDKKFVIKPIDKKAPDFVFYAPRLRINKRILALCMGNHELYMRRRKPDTIEVQQMKAQAREEKHQKQMERAMLENEKKKREMAEKEKEKIEREKEELMERLKQIEEQTKKAQQELEEQTRRALELEQERKRAQSEAEKLAKERQEAEEAKEALLQASRDQKKTQEQLALEMAELTARISQLEMARQKKESEAVEWQQKAQMVQEDLEKTRAELKTAMSTPHVAEPAENEQDEQDENGAEASADLRADAMAKDRSEEERTTEAEKNERVQKHLKALTSELANARDESKKTANDMIHAENMRLGRDKYKTLRQIRQGNTKQRIDEFESM
Consider B4, for which, in the assay with gRNA of HCoV-OC43, the “target (spectral count, OC43 Probe I RNP capture)” value was 5 and the “background (spectral count, no-probe control)” value came to 1.

B5: TECR: host protein, UniProt Q9NZ01 (protein, UniProt Q9NZ01 1-308, looked up)
Very-long-chain enoyl-CoA …: MKHYEVEILDAKTREKLCFLDKVEPHATIAEIKNLFTKTHPQWYPARQSLRLDPKGKSLKDEDVLQKLPVGTTATLYFRDLGAQISWVTVFLTEYAGPLFIYLLFYFRVPFIYGHKYDFTSSRHTVVHLACICHSFHYIKRLLETLFVHRFSHGTMPLRNIFKNCTYYWGFAAWMAYYINHPLYTPPTYGAQQVKLALAIFVICQLGNFSIHMALRDLRPAGSKTRKIPYPTKNPFTWLFLLVSCPNYTYEVGSWIGFAIMTQCLPVALFSLVGFTQMTIWAKGKHRSYLKEFRDYPPLRMPIIPFLL
With B5, in the assay on gRNA of HCoV-OC43, the “target (spectral count)” value worked out at 9 and the “background (spectral count)” value is 1.

B6: RBM15: host protein, UniProt Q96T37 (protein, UniProt Q96T37 1-977, looked up)
RNA-binding protein 15: MRTAGRDPVPRRSPRWRRAVPLCETSAGRRVTQLRGDDLRRPATMKGKERSPVKAKRSRGGEDSTSRGERSKKLGGSGGSNGSSSGKTDSGGGSRRSLHLDKSSSRGGSREYDTGGGSSSSRLHSYSSPSTKNSSGGGESRSSSRGGGGESRSSGAASSAPGGGDGAEYKTLKISELGSQLSDEAVEDGLFHEFKRFGDVSVKISHLSGSGSGDERVAFVNFRRPEDARAAKHARGRLVLYDRPLKIEAVYVSRRRSRSPLDKDTYPPSASVVGASVGGHRHPPGGGGGQRSLSPGGAALGYRDYRLQQLALGRLPPPPPPPLPRDLERERDYPFYERVRPAYSLEPRVGAGAGAAPFREVDEISPEDDQRANRTLFLGNLDITVTESDLRRAFDRFGVITEVDIKRPSRGQTSTYGFLKFENLDMSHRAKLAMSGKIIIRNPIKIGYGKATPTTRLWVGGLGPWVPLAALAREFDRFGTIRTIDYRKGDSWAYIQYESLDAAHAAWTHMRGFPLGGPDRRLRVDFADTEHRYQQQYLQPLPLTHYELVTDAFGHRAPDPLRGARDRTPPLLYRDRDRDLYPDSDWVPPPPPVRERSTRTAATSVPAYEPLDSLDRRRDGWSLDRDRGDRDLPSSRDQPRKRRLPEESGGRHLDRSPESDRPRKRHCAPSPDRSPELSSSRDRYNSDNDRSSRLLLERPSPIRDRRGSLEKSQGDKRDRKNSASAERDRKHRTTAPTEGKSPLKKEDRSDGSAPSTSTASSKLKSPSQKQDGGTAPVASASPKLCLAWQGMLLLKNSNFPSNMHLLQGDLQVASSLLVEGSTGGKVAQLKITQRLRLDQPKLDEVTRRIKVAGPNGYAILLAVPGSSDSRSSSSSAASDTATSTQRPLRNLVSYLKQKQAAGVISLPVGGNKDKENTGVLHAFPPCEFSQQFLDSPAKALAKSEEDYLVMIIVRGFGFQIGVRYENKKRENLALTLL
Consider B6, for which, in the assay with gRNA of HCoV-OC43, the “target (spectral count)” value is recorded as 9; the “background (spectral count)” value was 1; the “target (spectral count, OC43 Probe I RNP capture)” value was determined as 14; the “background (spectral count, no-probe control)” value is given as 1. The “target (unweighted spectral count, OC43 Probe II capture)” value in the assay with HCoV-OC43 gRNA and sgRNA (24 hpi, type n_24_v, tested against no-probe control, FDR<10%) came out at 5. Moreover, the “target (unweighted spectral count, OC43 Probe II)” value in the assay with HCoV-OC43 gRNA and sgRNA (type n_48_v, 48 hpi, OC43 Probe II capture on infected cells) came to 11. Also, the “background (unweighted spectral count, no-probe control)” value in the assay with HCoV-OC43 gRNA and sgRNA (type n_48_v, 48 hpi, no-probe control on infected cells) was 1.

B7: HNRNPAO: host protein, UniProt Q13151 (protein, UniProt Q13151 1-305, looked up)
Heterogeneous nuclear …: MENSQLCKLFIGGLNVQTSESGLRGHFEAFGTLTDCVVVVNPQTKRSRCFGFVTYSNVEEADAAMAASPHAVDGNTVELKRAVSREDSARPGAHAKVKKLFVGGLKGDVAEGDLIEHFSQFGTVEKAEIIADKQSGKKRGFGFVYFQNHDAADKAAVVKFHPIQGHRVEVKKAVPKEDIYSGGGGGGSRSSRGGRGGRGRGGGRDQNGLSKGGGGGYNSYGGYGGGGGGGYNAYGGGGGGSSYGGSDYGNGFGGFGSYSQHQSSYGPMKSGGGGGGGGSSWGGRSNSGPYRGGYGGGGGYGGSSF
With B7, in the assay on gRNA of HCoV-OC43, the “target (spectral count)” value is listed as 15 and the “background (spectral count)” value stood at 2.
